From the RNAGym collection of RNA variant scans (doi:10.7554/elife.80360)

B1: Hammerhead Ribozyme (parent)
chain: ACCGGAUGUGCUUUCCGGUCUGAUGAGUCCGUGAGGACGAAACAG

Variants of: B1
Experiment: self-cleavage, relative activity (ratio to wild type); higher = more cleavage; co-transcriptional

| Variant | self-cleavage |
| --- | --- |
| ACCGGAUGUGCUUUCCGGUCUGAUUAGUCCGUGAGGAAGAAACAG | 0.328 |
| ACCGGAUGUGCUUUCCGGUCUGAUUAGUCCGUGAGGAGGAAACAG | 0.382 |
| ACCGGAUGUGCUUUCCGGUCUGAUUAGUCCGUGAGGAUGAAACAG | 0.37 |
| ACCGGAUGUGCUUUCCGGUCUGAUCAGUCCGUAAGGACGAAACAG | 0.31 |
| ACCGGAUGUGCUUUCCGGUCUGAUCAGUCCGUCAGGACGAAACAG | 0.272 |
| ACCGGAUGUGCUUUCCGGUCUGAUCAGUCCGUUAGGACGAAACAG | 0.231 |
| ACCGGAUGUGCUUUCCGGUCUGAUUAGUACGUGAGGACGAAACAG | 0.321 |
| ACCGGAUGUGCUUUCCGGUCUGAUUAGUGCGUGAGGACGAAACAG | 0.313 |
| ACCGGAUGUGCUUUCCGGUCUGAUUAGUUCGUGAGGACGAAACAG | 0.273 |
| ACCGGAUGUGCUUUCCGGUCUGAUCAGUCCGUGAGGACGAAAUAG | 0.425 |
| ACCGGAUGUGCUUUCCGGUCUGAUCAGUCCGUGAGGACGAAAAAG | 0.302 |
| ACCGGAUGUGCUUUCCGGUCUGAUCAGUCCGUGAGGACGAAAGAG | 0.235 |
| ACCGGAUGUGCUUUCCGGUCUGAUCAGUCCGGGAGGACGAAACAG | 0.281 |
| ACCGGAUGUGCUUUCCGGUCUGAUCAGUCCGCGAGGACGAAACAG | 0.342 |
| ACCGGAUGUGCUUUCCGGUCUGAUCAGUCCGAGAGGACGAAACAG | 0.298 |
| ACCGGAUGUGCUUUCCGGUCUGAUCAGUCCCUGAGGACGAAACAG | 0.339 |
| ACCGGAUGUGCUUUCCGGUCUGAUCAGUCCUUGAGGACGAAACAG | 0.358 |
| ACCGGAUGUGCUUUCCGGUCUGAUCAGUCCAUGAGGACGAAACAG | 0.339 |
| ACCGGAUGUGCUUUCCGGUCUGAUCAGUCCGUGAGGAGGAAACAG | 0.304 |

| Variant | self-cleavage |
| --- | --- |
| ACCGGAUGUGCUUUCCGGUCUGAUCAGUCCGUGAGGAUGAAACAG | 0.22 |
| ACCGGAUGUGCUUUCCGGUCUGAUCAGUCCGUGAGGAAGAAACAG | 0.367 |
| ACCGGAUGUGCUUUCCGGUCUGAUUAGUCCGUGCGGACGAAACAG | 0.317 |
| ACCGGAUGUGCUUUCCGGUCUGAUUAGUCCGUGUGGACGAAACAG | 0.294 |
| ACCGGAUGUGCUUUCCGGUCUGAUUAGUCCGUGGGGACGAAACAG | 0.261 |
| ACCGGAUGUGCUUUCCGGUCUGAUCAGUCCGUGAGGACCAAACAG | 0.242 |
| ACCGGAUGUGCUUUCCGGUCUGAUCAGUCCGUGAGGACAAAACAG | 0.33 |
| ACCGGAUGUGCUUUCCGGUCUGAUCAGUCCGUGAGGACUAAACAG | 0.33 |
| ACCGGAUGUGCUUUCCGGUCUGAUUAGUCCGUUAGGACGAAACAG | 0.325 |
| ACCGGAUGUGCUUUCCGGUCUGAUUAGUCCGUCAGGACGAAACAG | 0.305 |
| ACCGGAUGUGCUUUCCGGUCUGAUUAGUCCGUAAGGACGAAACAG | 0.374 |
| ACCGGAUGUGCUUUCCGGUCUGAUCAGUCGGUGAGGACGAAACAG | 0.221 |
| ACCGGAUGUGCUUUCCGGUCUGAUCAGUCUGUGAGGACGAAACAG | 0.314 |
| ACCGGAUGUGCUUUCCGGUCUGAUCAGUCAGUGAGGACGAAACAG | 0.262 |
| ACCGGAUGUGCUUUCCGGUCUGAUCAGUCCGUGAGGACGAAUCAG | 0.332 |
| ACCGGAUGUGCUUUCCGGUCUGAUCAGUCCGUGAGGACGAACCAG | 0.293 |
| ACCGGAUGUGCUUUCCGGUCUGAUCAGUCCGUGAGGACGAAGCAG | 0.27 |
| ACCGGAUGUGCUUUCCGGUCUGAUCACUCCGUGAGGACGAAACAG | 0.278 |
| ACCGGAUGUGCUUUCCGGUCUGAUCAAUCCGUGAGGACGAAACAG | 0.285 |

| Variant | self-cleavage |
| --- | --- |
| ACCGGAUGUGCUUUCCGGUCUGAUCAUUCCGUGAGGACGAAACAG | 0.294 |
| ACCGGAUGUGCUUUCCGGUCUGAUCAGUCCGUGAGAACGAAACAG | 0.305 |
| ACCGGAUGUGCUUUCCGGUCUGAUCAGUCCGUGAGCACGAAACAG | 0.281 |
| ACCGGAUGUGCUUUCCGGUCUGAUCAGUCCGUGAGUACGAAACAG | 0.309 |
| ACCGGAUGUGCUUUCCGGUCUGAUUAGUCCGUGAGGACGAAAAAG | 0.359 |
| ACCGGAUGUGCUUUCCGGUCUGAUUAGUCCGUGAGGACGAAAUAG | 0.36 |
| ACCGGAUGUGCUUUCCGGUCUGAUUAGUCCGUGAGGACGAAAGAG | 0.357 |
| ACCGGAUGUGCUUUCCGGUCUGAUUAGACCGUGAGGACGAAACAG | 0.385 |
| ACCGGAUGUGCUUUCCGGUCUGAUUAGGCCGUGAGGACGAAACAG | 0.314 |
| ACCGGAUGUGCUUUCCGGUCUGAUUAGCCCGUGAGGACGAAACAG | 0.274 |
| ACCGGAUGUGCUUUCCGGUCUGAUCAGCCCGUGAGGACGAAACAG | 0.309 |
| ACCGGAUGUGCUUUCCGGUCUGAUCAGACCGUGAGGACGAAACAG | 0.338 |
| ACCGGAUGUGCUUUCCGGUCUGAUCAGGCCGUGAGGACGAAACAG | 0.311 |
| ACCGGAUGUGCUUUCCGGUCUGAUUAGUCCGUGAGGACGGAACAG | 0.328 |
| ACCGGAUGUGCUUUCCGGUCUGAUUAGUCCGUGAGGACGCAACAG | 0.272 |
| ACCGGAUGUGCUUUCCGGUCUGAUUAGUCCGUGAGGACGUAACAG | 0.417 |
| ACCGGAUGUGCUUUCCGGUCUGAUUAGUCUGUGAGGACGAAACAG | 0.259 |
| ACCGGAUGUGCUUUCCGGUCUGAUUAGUCAGUGAGGACGAAACAG | 0.293 |
| ACCGGAUGUGCUUUCCGGUCUGAUUAGUCGGUGAGGACGAAACAG | 0.291 |
